{"source": "paper PMC11320721", "key": {"[1]": {"biological_target": "PZP domain of JADE1 (JADE1PZP), wild type (human) (UniProt Q6IE81)", "sequence (Q6IE81 201-373)": "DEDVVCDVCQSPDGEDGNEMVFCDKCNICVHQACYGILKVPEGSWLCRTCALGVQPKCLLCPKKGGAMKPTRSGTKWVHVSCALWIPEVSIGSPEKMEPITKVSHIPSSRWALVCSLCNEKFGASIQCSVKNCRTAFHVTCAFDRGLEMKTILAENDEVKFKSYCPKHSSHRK", "test": "other fluorescence titration"}, "[2]": {"biological_target": "Nucleosome core particle with 207 bp DNA (NCP207) (human) (UniProt P04908)", "test": "fluorescence polarisation"}, "[3]": {"biological_target": "Nucleosome core particle with 147 bp 601 DNA (NCP147) (human) (UniProt P04908)", "test": "fluorescence polarisation"}}}
{"substance": "H3_(1–31) peptide (residues 1–31 of H3) (from UniProt P68431 2-32)", "values": [{"measurement": "Kd of the first site (two-site binding model)", "setting": "[1]", "value": 0.3, "unit": "µM"}, {"measurement": "Kd of the second site (two-site binding model)", "setting": "[1]", "value": 25, "unit": "µM"}]}
{"substance": "H3_(15–34) peptide (residues 15–34 of H3) (from UniProt P68431 16-35)", "values": [{"measurement": "Kd", "setting": "[1]", "value": 63, "unit": "µM"}]}
{"substance": "K331A/R334A/K367A (KRK) mutant of JADE1PZP (from UniProt Q6IE81 201-373) (domain or fragment)", "values": [{"measurement": "fold decrease in binding against wild type JADE1PZP", "setting": "[2]", "value": 55, "unit": "fold"}]}
{"substance": "PZP domain of JADE1 (JADE1PZP), wild type (from UniProt Q6IE81 201-373) (domain or fragment)", "values": [{"measurement": "S1/2", "setting": "[3]", "value": 2.8, "unit": "µM"}, {"measurement": "S1/2", "setting": "[2]", "value": 0.5, "unit": "µM"}]}
